This data set can be described thus: soluble on expression in E. coli; label from the status in PepcDB or PDB records.
Turning to “MYSEERRRQIASLTAVEGRVNVTELAARFDVTAETIRRDLAVLDREGVVHRVHGGAVANQTFQTAEFSLDTRSRSASGAKNSIAHAALSYLPEAQGGLFLDAGTTTAALAELLAAQPFAKHWSIVTNSLSIALTLANSGLDEIQLLGGSVRAITQAVVGDTALRTLALMRADVAFIGTNALTIDHGLSTADSQEAAIKSAMITNAHKVVVLCDSTKMGTDYLVSFGSISDIDVIITDANAPESFVKALRDRDVEVIIALEHHHHHH”, the “soluble on expression in E. coli” value is listed as “soluble”.

For the sequence “MEYRMFDIGVNLTSSQFAKDRDDVVACAFDAGVNGLLITGTNLRESQQAQKLARQYSSCWSTAGVHPHDSSQWQAATEEAIIELAAQPEVVAIGECGLDFNRNFSTPEEQERAFVAQLRIAADLNMPVFMHCRDAHERFMTLLEPWLDKLPGAVLHCFTGTREEMQACVAHGIYIGITGWVCDERRGLELRELLPLIPAEKLLIETDAPYLLPRDLTPKPSSRRNEPAHLPHILQRIAHWRGEDAAWLAATTDANVKTLFGIAF”, the “soluble on expression in E. coli” value is “soluble”.

Consider “MASGDVRIASLVPSITELLFDLGLADQLVARTGFCIHPEPAVRAVAKVGGTKDVKLDRLRALAPTHVVVNIDENRRETVDEIRTFVPHVIVTHPCAPEDNLALYRLLGGIFGRRPQAEALVGQLRGELDAIQAQTWPLEHHHHHH”, for which the “soluble on expression in E. coli” value was “not soluble”.

Take “MAHHHHHHMKKLHQERGGNPMLAQQARRVLFATSITGQNIDARSIALLLNTAVYFGMESDARVVRECIDFCLKNDKFISLDIMPIVVTACATLQSRDAREVIELQAIKATRNARFLDAKGVTNVISAFSKTGINHEKLFGLLSMRVQTLARVGEFEAAHLVILANAFARLRFREQHVFSAIARRAMSLRERVTVNELVPLINAFSKAGLKDPKLSKRFAGKAMEYVDQMNAEQVALMFQAFAYFGIRYDQLFGVLTNRAVELIDEFNAQYISTTLASFQRIGINNPELFDNLAERALAVVQDHDAKDIALTVTALAHFGLKDEELFKRLASHAASIADQFDPVGLVNTIHAFARTFFLQEDMVVALSERCVYVCRHLDANQVRRLLWSLAKFQVKDPRILTPVFNRCLTLHQDFFSDPMGGEEIEEIFDVFGPSFCPPLYQLYMSRGNSV”: the “soluble on expression in E. coli” value is “not soluble”.

Regarding “MSLKKGYELLIFDWDGTLADSIGRIVEAMNVAAERAGEAQSSDAAVKGIIGLALDEAIHTLYPHLAPAEVASFRQHYADVYVALDQQPSPLFDGVVESLDAFRAEGYRLAVATGKARRGLDRVLKANGWERFFDITRAADETRGKPHPLMLEEILGHCGVEPSRALMVGDSAFDLQMASNAGMHSVAVGYGAMSLQALAEFGPQVCIDHFSQLREWLGGSAIPLPREGHHHHHH”, the “soluble on expression in E. coli” value was “soluble”.

Take “MGSDKIHHHHHHMKVLQFNQDATCCVVAASSHQISIFNCDPFGKCFEIDTKNSKKKTSNNNGSASNSESRNNEESILITNGSRDRTDAEEEEDNEDNALVTGNILKEGEFVIEMLFSTSLIAIADRGQGLNKGKKLKIVNTKRKCTICEIVFPHEIVDVVMNRKRMCVLLESDQIFIYDISCMKPLETIDLWEDHYKRSQANSFSNASNTGTLEGDSANLNRVATNLLANATQKSVNGSNPSVRTRRNSLRSKIRPRMVLSNDDRSILCFTAYSSPKKNKPNSEALYDVVIYDTLNVTPVNYLNSVHKGNVACLAVSHDGKLLATASDKGTIIRVFHTGVDSDYMSSRSLFKEFRRGTRLCNLYQLAFDKSMTMIGCVGDTDTIHLFKLDDASNSLPGDNSSNGHWNEEEYILASNSNPSMGTPKEIPLSKPRIANYFSKKIKSSIPNQNLSRNFAYITVNESNRSCLGFPDEFPNQVYIASDDGTFSIYSIPSKPGECVLTKNNKFT”: the “soluble on expression in E. coli” value is listed as “not soluble”.

As for “MGSDKIHHHHHHMTPSTPTLATRWEPLPPRVVAELLGPSSARWWLSGGVALDHWLGTNTREHDNIDVSTTIADLPQVVQDLPAPFSAWAPSGDGVVPWAEADMDADLQPIRIHDDATGAWVMQVDVEDGTDSLWVYRRDPRLQLPWDRAVIDVDGIPTGAPEVQLVWKALRPRPEDDADKDAVLPELSNEARAWWEHAILTIHPHSSWSIHVRTPFAPGKASWNRTRR”, the “soluble on expression in E. coli” value is “not soluble”.

With “MPSAAPSSSVLLVQISDSHLFAEADGALLGMSTRDSLEKVVDLVLAEQPQVDLVVASGDISQDGSVESYEAFRRISTQIAAPARWFAGNHDELPQMEHVAQAEGLLEPIINIGRWRVTLLDSAVPGSVPGFLAAGQLQLLEQSLSEAPDRHHLVCLHHHPVAIGCEWMTPIGLRNADALFAVLDRFPQVRAVLWGHVHQEFDQMRNGVRLLASPSTCIQFAPGSADFKVDTTAPGYRWLRLHDDGRLETAVSRVVGMQFEVDYGGTGY”, the “soluble on expression in E. coli” value is listed as “not soluble”.

Consider “MGSDKIHHHHHHMNTLQRRKTHQVRIDHITVGSEAPVVIQSMTNTDTADAKATALQIKELSDAGSEMVRITVNSPEAASKVAEIRRRLDDMGYATPLIGDFHFNGERLLAEFPECGKALSKYRINPGNVGKGVKGDEKFAFMIRTAAENDKAVRIGVNWGSLDQSLAKRMMDANLASSAPKPPEEVTKEALIVSALESAEKAVLLGLPEDKIILSCKVSAVQDLIQVYRELGSRCAYPLHLGLTEAGMGSKGIVASTAALSVLLQEGIGDTIRISLTPEPGSPRTQEVVVGQEILQTMGLRSFTPMVTACPGCGRTTSTVFQELAQDVQNYLRQKMSIWRTLYPGVESLNVAVMGCVVNGPGESKLADIGISLPGTGETPVAPVYVDGERKVTLKGDNIATEFLAIVEEYVKTNYGENGSKRNQNKIIPIQSL”, for which the “soluble on expression in E. coli” value is “not soluble”.

For the sequence “TTATRQEVLGLYRSIFRLARKWQATSGQMEDTIKEKQYILNEARTLFRKNKNLTDTDLIKQCIDECTARIEIGLHY”, the “soluble on expression in E. coli” value is “soluble”.

Consider “SIDSKLQTLGEQLMQGKRGAIVMIEPETGEVLCLVSSPSYDPSLLAGKDRGKNHLEMEHDRNKPLYARAIQATYPPGSTFKPAQGAIFLQEGVIRPTDAFSCYHGFPPLNNRPACHSHGSPLSLVPALATSCNAFFCWGLRAMLDNRRFYPSVQEAFEHWKNRIVGLGFGYRLGLDLPGERRGYIPNSKVYDKAYKGRWNSSTIISISIGQGEILATPLQIANLGVIIANRGRYRRPHVVKAIQGIPLDTAYTNWQNSGISPANMEYIVEGMARAVTGGTCHAANFAPGEIEVCGKTGTAENPHGKDHSAFLGFAPRNNPKVVVSVYVENGGFGAVYGVPIGRVMMEYYLREGKLSPEGEAVATKMSNTAIHYSNVF”, for which the “soluble on expression in E. coli” value is reported as “not soluble”.

Consider “MSLGSIITLYSPVGGIGKSTIAIEMAKKLSDSNKKVLYLNLEDLQSTLVFFECSTSKNMSDFLYFIKERDENFKEVLKDIVLKDEESGINYFAPVDSVLDIEDLKVDDVKFMLQKLIEVNMYNYIIIDLSSTFNINYKTIFEMSSKIIVPIGQDKLSSVKLQNFLKQLDNLENFSFIQNKYKDNLETIIPHVLLREKKPIIQKIYYDEALESVSSLIYLKNRASTFLRCIDELIMKLLEGHHHHHH”, for which the “soluble on expression in E. coli” value was “soluble”.

Take “MYKWLLSVLLVLMSTVVHAADCFDLAGRDYKIDPDLLRAISWKESRNRANAVGINPVTGYGSGLMQVDSQHFNELARYGIKPEQLVSDPCLNIYTGAYYLAIAFRKWGVSWTAVGAYNAGFKKTPLQDARRLDYATDVHRIWIAIKQSKTRQTPAR”: the “soluble on expression in E. coli” value is “not soluble”.

In the case of “MKITIIGAGNIGSAVAACLAKGHLYNEKDIIISTPHTDKLENLHKQFPAIRIMTENQYAISEADIIILAVKPCIVDEVLSPLRFSRTQILVSLVTGISISHLAHLSETEMPIFRVVPNIAITEHSSLTLITSRKAGKEHQQLIKQTFEEGGKCLFAEEKQLDIISALTSSGIAFALKYIHAAMQAGIELGISAEDAMRMTAYSMEGATELILNHDTHPLLEIEKAATPGGATIKGLNELEHRGFTSAVIHAIKSSATVSTDKETEE”, the “soluble on expression in E. coli” value was “not soluble”.

For the sequence “TPEHRAVAREVAAETFVLLKNENHLLPLEEKGKIALIGPMADARNNMCGMWSMTCTPSRHGTLLEGIRSAVGDKAEILYAKGSNVYYDAEMEKGAVGIRPLERGNDQQLLAEALRTAARADVIVAAVGECAEMSGESPSRTNLEIPDAQQDLLKALVKTGKPVVLLLFTGRPLILNWESEHIPSILNVWFGGSETGDAVADVLFGKAVPCGKLTTTFPRSVGQLPLFYNHLNTGRPDPDNRVFNRYASNYLDESNEPLYPFGYGLSYTDF”, the “soluble on expression in E. coli” value was “not soluble”.

As for “MSLNYIEDIKNYIPFNEQEERDKELFLRCLNDFHDILTRDNTIAHLTSSAFAVNKERNKFLMIHHNIYNSWAWTGGHSDNEKDQLKVAIKELKEETGVKNPTPLLDKAFALDVLTVNGHIKRGKYVSSHLHLNLTYLIECSEDETLMLKEDENSGVMWIPFNEISKYCSEPHMIPIYEKLINKLKTQSKEGHHHHHH”, the “soluble on expression in E. coli” value is recorded as “soluble”.

Regarding “MIRILHTADWHLGQTFFGYDRAEEHKAFLDWLAEEIRQNEIDALVIAGDVFDVSNPSAASQRIYYEFIYRVTAENPKLQIVIVAGNHDSAARLEAPLPLLQAMRTEVRGVVRKLEGGEIDYDHLTIELKNREGEVEVLCMAVPFLRQGDYPVVETEGNPYMEGVRELYARLLQRLWARRKTNQAILAVGHLQATGSEIAEKDYSERTVIGGLECVSPDTFSEKIAYTALGHIHKAQRVSGRENVRYAGSPIPMSFAEKHYHHGVVMVILDEGCAVDIRRIECPQSIPLISVPGGEAASPEKIIEILRDLPEVDGEAPYLEVKVLLEEPEPMLRQEIEEALAGKKYRLARIVSAYRQEERVEKEVDGWKKGLQEMSPLQIAQSAFEKVYQAEMPADLTDLFQEAYISATRKEEEEGE”, the “soluble on expression in E. coli” value was “not soluble”.

Take “MAGRRRWSTEQILDAAAELLLAGDAETFSVRKLAASLGTDSSSLYRHFRNKTELLRAVADRILLSAMDGYRPEGDWKQRLTAVALRLRESFGQQPQLAAVWGRHGSGGTGSRLMMEEVLQALRASGLPDDEIPARYHRLVILISSLITAEGGFGAVGAQEHEQGMEQFRVAVLGADPERFPALSHFAREIRPLGADRGAAFEEILAAHLAHLEAAAP”: the “soluble on expression in E. coli” value is listed as “soluble”.

Consider “VASGYGGIRVGGPYFDDLSKGQVFDWAPGVTLSLGLAAAHQSIVGNRLRLALDSDLCAAVTGMPGPLAHPGLVCDVAIGQSTLATQRVKANLFYRGLRFHRFPAVGDTLYTRTEVVGLRANSPKPGRAPTGLAGLRMTTIDRTDRLVLDFYRCAMLPASPDWKPGAVPGDDLSRIGADAPAPAADPTAHWDGAVFRKRVPGPHFDAGIAGAVLHSTADLVSGAPELARLTLNIAATHHDWRVSGRRLVYGGHTIGLALAQATRLLPNLATVLDWESCDHTAPVHEGDTLYSELHIESAQAHADGGVLGLRSLVYAVSDSASEPDRQVLDWRFSALQF”, for which the “soluble on expression in E. coli” value is “soluble”.

For the sequence “RGFAKIRDERARRDKIHNLIKRKLDPTKRFSSKQQRQLDRLTRESNLKPSELKETIREEVVEELAGAADGDDVDAVIDEAAGITTTYEPIEFEDTTVSVEDTSLGLPSHARPMSELEDLTTFEEDIAEEAATNTPADKPAAKH”, the “soluble on expression in E. coli” value is reported as “not soluble”.

As for “MAFTEHSPLTPHRRDLCSRSIWLARKIRSDLTALTESYVKHQGLNKNINLDSADGMPVASTDQWSELTEAERLQENLQAYRTFHVLLARLLEDQQVHFTPTEGDFHQAIHTLLLQVAAFAYQIEELMILLEYKIPRNEADGMPINVGDGGLFEKKLWGLKVLQELSQWTVRSIHDLRFISSHQTGIP”, the “soluble on expression in E. coli” value is listed as “soluble”.

For “EISLNGYGRFGLQYVEDRGVGLEDTIISSRLRINIVGTTETDQGVTFGAKLRMQWDDGDAFAGTAGNAAQFWTSYNGVTVSVGNVDTAFDSVALTYDSEMGYEASSFGDAQSSFFAYNSKYDASGALDNYNGIAVTYSISGVNLYLSYVDPDQTVDSSLVTEEFGIAADWSNDMISLAAAYTTDAGGIVDNDIAFVGAAYKFNGGGGPKLAKMEKARGGGGDAGTVGLNWYDNGLSTAGDQVTLYGNYAFGATTVRAYVSDIDRAGADTAYGIGADYQFAEGVKVSGSVQSGFANETVADVGVRFDF”, the “soluble on expression in E. coli” value is “soluble”.

The record behind these values is the DeepSol protein solubility set.
